Laboratory results: patent publication US20230025732A1 (INNATE PHARMA, published 2023)
Where a chain is given by its changes, count along the chain named.

Key:
[1] = molecular target: T1, human CD39 expressed at the cell surface (human, UniProt P49961 1-510); test: cell-based or functional assay
T1 sequence: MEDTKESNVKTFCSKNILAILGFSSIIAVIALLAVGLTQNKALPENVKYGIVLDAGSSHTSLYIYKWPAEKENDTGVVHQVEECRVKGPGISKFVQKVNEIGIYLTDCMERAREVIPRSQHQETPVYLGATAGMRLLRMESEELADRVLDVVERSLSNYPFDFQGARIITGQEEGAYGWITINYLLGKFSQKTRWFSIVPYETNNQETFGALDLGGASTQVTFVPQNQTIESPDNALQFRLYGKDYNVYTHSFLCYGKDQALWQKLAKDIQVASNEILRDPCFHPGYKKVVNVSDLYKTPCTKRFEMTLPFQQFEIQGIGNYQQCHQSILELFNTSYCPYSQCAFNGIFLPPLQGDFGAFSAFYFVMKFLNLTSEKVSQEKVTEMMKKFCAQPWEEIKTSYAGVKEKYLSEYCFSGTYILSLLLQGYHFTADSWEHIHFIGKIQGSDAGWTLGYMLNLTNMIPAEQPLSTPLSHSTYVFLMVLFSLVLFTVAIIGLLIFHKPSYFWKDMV

[2] = molecular target: T2, CD39-M2 extracellular domain recombinant protein (soluble recombinant human CD39 with M2 tag) (human, UniProt P49961 38-478, limits assumed); test: cell-based or functional assay
T2 sequence: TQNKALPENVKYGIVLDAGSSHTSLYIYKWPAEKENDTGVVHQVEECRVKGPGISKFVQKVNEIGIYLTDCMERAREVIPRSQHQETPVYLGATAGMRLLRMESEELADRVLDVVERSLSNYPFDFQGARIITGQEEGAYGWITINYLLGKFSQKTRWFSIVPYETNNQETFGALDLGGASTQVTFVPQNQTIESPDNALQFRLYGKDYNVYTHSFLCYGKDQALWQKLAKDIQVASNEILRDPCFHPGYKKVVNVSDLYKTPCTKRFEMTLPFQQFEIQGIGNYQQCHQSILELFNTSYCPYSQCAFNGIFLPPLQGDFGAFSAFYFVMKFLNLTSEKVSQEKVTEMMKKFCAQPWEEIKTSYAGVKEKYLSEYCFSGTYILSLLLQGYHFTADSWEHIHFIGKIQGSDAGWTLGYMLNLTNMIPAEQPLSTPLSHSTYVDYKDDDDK

[3] = molecular target: T1, human CD39 expressed at the cell surface; test: flow cytometry, Ramos lymphoma cells, first set of experiments; Ramos cells, first set of experiments
Protocol: (§1) Cells were incubated with various concentration of unlabeled anti-CD39 antibody from 30 μg/ml to 5×10⁻⁴ μg/ml, for 30 minutes at 4° C. After washes, cells were incubated with Goat anti-mouse H+L labeled secondary antibody for 30 min at 4° C.

[4] = molecular target: T1, human CD39 expressed at the cell surface; test: flow cytometry titration on CHO cells expressing human CD39 (Mediane of Fluo), panel CHO-huCD39
Protocol: as §1

[5] = molecular target: T1, human CD39 expressed at the cell surface; test: flow cytometry titration on Ramos lymphoma cells (Mean of Fluorescence), panels L0, L1 and L1*
[6] = molecular target: T3, Human CD39-L4, also known as NTPDase5 or ENTPD5 (human, UniProt O75356 25-428); test: ELISA on coated recombinant human CD39-L4, panel huCD39 L4; no legend on the sheet, curve is I-394 by paragraph 85
T3 construct: Recombinant protein coated in ELISA
T3 sequence: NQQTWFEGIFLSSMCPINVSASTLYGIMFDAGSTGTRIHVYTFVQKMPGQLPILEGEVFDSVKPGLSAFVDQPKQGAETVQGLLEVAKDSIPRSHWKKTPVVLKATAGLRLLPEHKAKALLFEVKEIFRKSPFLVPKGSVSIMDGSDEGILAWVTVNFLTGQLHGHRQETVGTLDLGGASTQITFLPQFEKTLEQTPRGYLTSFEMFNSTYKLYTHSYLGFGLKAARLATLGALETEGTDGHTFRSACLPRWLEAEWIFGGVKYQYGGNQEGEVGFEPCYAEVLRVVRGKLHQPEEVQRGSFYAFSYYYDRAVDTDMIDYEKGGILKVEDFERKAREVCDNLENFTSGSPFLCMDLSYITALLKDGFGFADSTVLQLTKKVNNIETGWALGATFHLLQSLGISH
Protocol: Wells were washed in TBS Tween 20, and further saturated 2H at RT in TBS Blocking buffer. Dose range concentration of primary antibody was incubated in TBS blocking buffer for 2 h at RT. Wells were washed in TBS Tween 20. […] Optical density was measured on Enspire™ at OD=450.

CD39 mutant 19 = molecular target: T4, CD39 mutant 19 (human, UniProt P49961 1-510); test: flow cytometry on Hek-293T cells transfected with CD39 mutant 19 (panel M19); antibody concentration not given on the sheet
T4 construct: expressed on Hek-293T cells; also called M19
T4 chain: T1 sequence with R138A, M139A, E142K
Source text: Mutants were transfected in Hek-293T cells, as shown in the table 1, using numbering of SEQ ID NO: 1. […] Mutant 19 includes substitutions at residues R138, M139 and E142.

B1: I-394 (antibody, human IgG1, V domains shown)
VH: EVQLQQSGPELVKPGASVKMSCKASGYTFTDYNMHWVKQSHGRTLEWIGYIVPLNGGSTFNQKFKGRATLTVNTSSRTAYMELRSLTSEDSAAYYCARGGTRFAYWGQGTLVTVSA
VL: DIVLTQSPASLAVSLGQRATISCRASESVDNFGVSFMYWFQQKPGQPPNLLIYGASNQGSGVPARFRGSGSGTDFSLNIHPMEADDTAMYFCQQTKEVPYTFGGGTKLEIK
[1]
  IC50, inhibition of CD39 ATPase activity in Ramos cells: 0.05 mg/L
[2]
  IC50, inhibition of ATPase activity of soluble CD39: 0.003 mg/L
[3]
  EC50: 0.16 mg/L
[4]
  EC50 (read off the curve): ~0.2 mg/L
[5]
  EC50 (read off the curve): ~0.5 mg/L
[6]
  binding result: no binding (tested: about 50 µg/ml)
CD39 mutant 19
  binding result: no binding
